Biological target: GFP-HTTQ74 reporter construct
Experiment: cell-based or functional assay

Row | Binder | % Aggregation (relative to Q74 alone), filter trap assay
1 | Construct 1, JB1 (other) MGKDYYQTLGLARGASDEEIKRAYRRQALRYHPDKNKEPGAEEKFKEIAEAYDVLSDPRKREIFDRYGEEGLKGSDIAAALESRDYKDDDDK | 127%
2 | Construct 3, QBP1-JB1 (designed binder) MGKPIPNPLLGLDSTGTGSSNWKWWPGIFDEFMGKDYYQTLGLARGASDEEIKRAYRRQALRYHPDKNKEPGAEEKFKEIAEAYDVLSDPRKREIFDRYGEEGLKGSDIAAALE | 67.5%
3 | Construct 6, QBP1-JB1-QBP1 (designed binder) MGKPIPNPLLGLDSTGTGSSNWKWWPGIFDEFMGKDYYQTLGLARGASDEEIKRAYRRQALRYHPDKNKEPGAEEKFKEIAEAYDVLSDPRKREIFDRYGEEGLKGSDIGGGGSGGGGSGGGGSGGGGSAAASNWKWWPGIFDGLE | 5.62%
4 | Construct 5, JB1-3XQBP1 (designed binder) MGKDYYQTLGLARGASDEEIKRAYRRQALRYHPDKNKEPGAEEKFKEIAEAYDVLSDPRKREIFDRYGEEGLKGSGGGGSGGGGSGGGGSGGGGSGSSNWKWWPGIAAASNWKWWPGILESNWKWWPGIFD | 41.1%
5 | Construct 7, QBP1-JB1-2XQBP1 (designed binder) MGKPIPNPLLGLDSTGTGSSNWKWWPGIFDEFMGKDYYQTLGLARGASDEEIKRAYRRQALRYHPDKNKEPGAEEKFKEIAEAYDVLSDPRKREIFDRYGEEGLKGSDIGGGGSGGGGSGGGGSGGGGSAAASNWKWWPGIFDGLESNWKWWPGIFD | 23%
6 | Construct 2, JB1-QBP1 (designed binder) MGKDYYQTLGLARGASDEEIKRAYRRQALRYHPDKNKEPGAEEKFKEIAEAYDVLSDPRKREIFDRYGEEGLKGSDIGGGGSGGGGSGGGGSGGGGSAAASNWKWWPGIFDGLE | 75.9%

Biological target: GFP-HTTQ74 reporter construct
Experiment: cell-based or functional assay
Remark: another data set of the same source

Row | Binder | % Aggregation (relative to Q74 alone), filter trap assay
7 | Construct 9, JB1(20-31)-2XQBP1 (designed binder) MGTGSEFIKRAYRRQALRYDIGGGGSGGGGSGGGGSGGGGSAAASNWKWWPGIFDGLESNWKWWPGIFD | 91%
8 | Construct 8, JB1(P33Q)-2XQBP1 (designed binder) MGKDYYQTLGLARGASDEEIKRAYRRQALRYHQDKNKEPGAEEKFKEIAEAYDVLSDPRKREIFDRYGEEGLKGSDIGGGGSGGGGSGGGGSGGGGSAAASNWKWWPGIFDGLESNWKWWPGIFD | 93%

Biological target: GFP-HTTQ74 reporter construct
Experiment: cell-based or functional assay
Remark: another data set of the same source

Row | Binder | Reduction of Aggregation (%), filter trap assay
9 | Construct 48, JB1-QBP1-QBP1 (15) (designed binder) MGKDYYQTLGLARGASDEEIKRAYRRQALRYHPDKNKEPGAEEKFKEIAEAYDVLSDPRKREIFDRYGEEGLKGSEAAAKSNWKWWPGIFDEAAAKEAAAKSNWKWWPGIFDLE | 100%
10 | Construct 37, JB1-QBP1-QBP1 (4) (designed binder) MGKDYYQTLGLARGASDEEIKRAYRRQALRYHPDKNKEPGAEEKFKEIAEAYDVLSDPRKREIFDRYGEEGLKGSGGGGSSNWKWWPGIFDEAAAKSNWKWWPGIFDLE | 97%
11 | Construct 39, JB1-QBP1-QBP1 (6) (designed binder) MGKDYYQTLGLARGASDEEIKRAYRRQALRYHPDKNKEPGAEEKFKEIAEAYDVLSDPRKREIFDRYGEEGLKGSEAAAKSNWKWWPGIFDEAAAKSNWKWWPGIFDLE | 98.1%
12 | Construct 40, JB1-QBP1-QBP1 (7) (designed binder) MGKDYYQTLGLARGASDEEIKRAYRRQALRYHPDKNKEPGAEEKFKEIAEAYDVLSDPRKREIFDRYGEEGLKGSEAAAKSNWKWWPGIFDGGGGSSNWKWWPGIFDLE | 96%
13 | Construct 38, JB1-QBP1-QBP1 (5) (designed binder) MGKDYYQTLGLARGASDEEIKRAYRRQALRYHPDKNKEPGAEEKFKEIAEAYDVLSDPRKREIFDRYGEEGLKGSGGGGSSNWKWWPGIFDGGGGSSNWKWWPGIFDLE | 96.9%
14 | Construct 43, JB1-QBP1-QBP1 (10) (designed binder) MGKDYYQTLGLARGASDEEIKRAYRRQALRYHPDKNKEPGAEEKFKEIAEAYDVLSDPRKREIFDRYGEEGLKGSSNWKWWPGIFDGGGGSGGGGSSNWKWWPGIFDLE | 99.5%
15 | Construct 44, JB1-QBP1-QBP1 (11) (designed binder) MGKDYYQTLGLARGASDEEIKRAYRRQALRYHPDKNKEPGAEEKFKEIAEAYDVLSDPRKREIFDRYGEEGLKGSSNWKWWPGIFDEAAAKEAAAKSNWKWWPGIFDLE | 99.6%
16 | Construct 53, Flag-QBP1-JB1-QBP1-Flag (designed binder) MDYKDDDDKGGTGSSNWKWWPGIFDEFMGKDYYQTLGLARGASDEEIKRAYRRQALRYHPDKNKEPGAEEKFKEIAEAYDVLSDPRKREIFDRYGEEGLKGSGGGGSGGGGSGGGGSGGGGSAAASNWKWWPGIFDLESRGDYKDDDDK | 79.9%
17 | Construct 49, JB1-QBP1-QBP1 (16) (designed binder) MGKDYYQTLGLARGASDEEIKRAYRRQALRYHPDKNKEPGAEEKFKEIAEAYDVLSDPRKREIFDRYGEEGLKGSGGGGSGGGGSGGGGSGGGGSAAASNWKWWPGIFDLEGGGGSSRAAASNWKWWPGIFDLE | 82.5%
18 | Construct 50, JB1-QBP1-QBP1 (17) (designed binder) MGKDYYQTLGLARGASDEEIKRAYRRQALRYHPDKNKEPGAEEKFKEIAEAYDVLSDPRKREIFDRYGEEGLKGSGGGGSGGGGSGGGGSGGGGSAAASNWKWWPGIFDLEEAAAKSRAAASNWKWWPGIFDLE | 90.9%
19 | Construct 41, JB1-QBP1-QBP1 (8) (designed binder) MGKDYYQTLGLARGASDEEIKRAYRRQALRYHPDKNKEPGAEEKFKEIAEAYDVLSDPRKREIFDRYGEEGLKGSEAAAKSNWKWWPGIFDEAAAKSNWKWWPGIFD | 91.1%
20 | Construct 42, JB1-QBP1-QBP1 (9) (designed binder) MGKDYYQTLGLARGASDEEIKRAYRRQALRYHPDKNKEPGAEEKFKEIAEAYDVLSDPRKREIFDRYGEEGLKGSEAAAKSNWKWWPGIFDGGGGSSNWKWWPGIFD | 87%
21 | Construct 51, JB1-QBP1-QBP1 (18) (designed binder) MGKDYYQTLGLARGASDEEIKRAYRRQALRYHPDKNKEPGAEEKFKEIAEAYDVLSDPRKREIFDRYGEEGLKGSEAAAKSNWKWWPGIFDLEGGGGSSNWKWWPGIFDLE | 96.5%
22 | Construct 52, JB1-QBP1-QBP1 (19) (designed binder) MGKDYYQTLGLARGASDEEIKRAYRRQALRYHPDKNKEPGAEEKFKEIAEAYDVLSDPRKREIFDRYGEEGLKGSGGGGSSNWKWWPGIFDLEGGGGSSNWKWWPGIFDLE | 96.9%
23 | Construct 57, JB1-QBP1-JB1-QBP1 (designed binder) MGKDYYQTLGLARGASDEEIKRAYRRQALRYHPDKNKEPGAEEKFKEIAEAYDVLSDPRKREIFDRYGEEGLKGSGSSNWKWWPGIFDEFMGKDYYQTLGLARGASDEEIKRAYRRQALRYHPDKNKEPGAEEKFKEIAEAYDVLSDPRKREIFDRYGEEGLKGSGGGGSGGGGSGGGGSGGGGSAAASNWKWWPGIFDLESRGDYKDDDDK | 94.1%
24 | Construct 56, JB1-JB1-QBP1 (designed binder) MGKDYYQTLGLARGASDEEIKRAYRRQALRYHPDKNKEPGAEEKFKEIAEAYDVLSDPRKREIFDRYGEEGLKGSGSEFMGKDYYQTLGLARGASDEEIKRAYRRQALRYHPDKNKEPGAEEKFKEIAEAYDVLSDPRKREIFDRYGEEGLKGSGGGGSGGGGSGGGGSGGGGSAAASNWKWWPGIFDLESRGDYKDDDDK | 68.5%
25 | Construct 45, JB1-QBP1-QBP1 (12) (designed binder) MGKDYYQTLGLARGASDEEIKRAYRRQALRYHPDKNKEPGAEEKFKEIAEAYDVLSDPRKREIFDRYGEEGLKGSGGGGSSNWKWWPGIFDGGGGSGGGGSSNWKWWPGIFDLE | 91.1%
26 | Construct 46, JB1-QBP1-QBP1 (13) (designed binder) MGKDYYQTLGLARGASDEEIKRAYRRQALRYHPDKNKEPGAEEKFKEIAEAYDVLSDPRKREIFDRYGEEGLKGSGGGGSSNWKWWPGIFDEAAAKEAAAKSNWKWWPGIFDLE | 100%
27 | Construct 47, JB1-QBP1-QBP1 (14) (designed binder) MGKDYYQTLGLARGASDEEIKRAYRRQALRYHPDKNKEPGAEEKFKEIAEAYDVLSDPRKREIFDRYGEEGLKGSEAAAKSNWKWWPGIFDGGGGSGGGGSSNWKWWPGIFDLE | 99.7%
28 | Construct 54, QBP1-JB1-QBP1 (1) (designed binder) MSNWKWWPGIFDGKDYYQTLGLARGASDEEIKRAYRRQALRYHPDKNKEPGAEEKFKEIAEAYDVLSDPRKREIFDRYGEEGLKGSSNWKWWPGIFDGDYKDDDDK | 0%
29 | Construct 35, JB1-QBP1-QBP1 (2) (designed binder) MGKDYYQTLGLARGASDEEIKRAYRRQALRYHPDKNKEPGAEEKFKEIAEAYDVLSDPRKREIFDRYGEEGLKGSSNWKWWPGIFDEAAAKSNWKWWPGIFDLE | 97.9%
30 | Construct 36, JB1-QBP1-QBP1 (3) (designed binder) MGKDYYQTLGLARGASDEEIKRAYRRQALRYHPDKNKEPGAEEKFKEIAEAYDVLSDPRKREIFDRYGEEGLKGSSNWKWWPGIFDGGGGSSNWKWWPGIFDLE | 95.7%
31 | Construct 55, QBP1-JB1-QBP1 (2) (designed binder) MSNWKWWPGIFDLEGKDYYQTLGLARGASDEEIKRAYRRQALRYHPDKNKEPGAEEKFKEIAEAYDVLSDPRKREIFDRYGEEGLKGSGGGSSNWKWWPGIFDLE | 9.45%

Source: patent US20230226223A1 (SOLA BIOSCIENCES, published 2023)
